Data taken from patent publication US20120201826A1 (NOV IMMUNE S A, published 2012).
Where a chain is given by its changes, count along the chain named.

Tests used:
[1] = biological target: T1, recombinant human RANTES (huRANTES, Peprotech) (human, UniProt P13501 24-91); test: cell-based or functional assay
T1 sequence: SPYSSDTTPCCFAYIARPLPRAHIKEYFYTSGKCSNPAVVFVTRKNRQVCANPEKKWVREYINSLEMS

[2] = biological target: T2, native human RANTES produced by THP1 cells (human, UniProt P13501 24-91); test: cell-based or functional assay
T2 sequence: T1 sequence

[3] = biological target: T1, recombinant human RANTES (huRANTES, …); test: cell-based or functional assay; remark: listed apart in the source
[4] = biological target: T1, recombinant human RANTES (huRANTES, …); test: cell-based or functional assay; remark: listed apart in the source
[5] = biological target: T2, native human RANTES produced by THP1 …; test: cell-based or functional assay; remark: listed apart in the source
[6] = biological target: T3, rat RANTES, expressed as fusion protein (ELISA panel) (rat, UniProt P30882 24-91 (mouse entry), Biotinylated in vivo at the AviTag, which is not in the letters); test: ELISA, chemokine coated at 5 ug/ml, concentration range of 1E4
T3 construct: not shown: NusA fusion partner with Factor X site, and the C-terminal AviTag
T3 sequence (P30882 24-91 limits assumed): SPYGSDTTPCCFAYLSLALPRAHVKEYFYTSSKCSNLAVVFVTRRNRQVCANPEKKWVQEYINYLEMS

[7] = biological target: T1, recombinant human RANTES (huRANTES, …); test: SPR (Biacore 2000), 1E4 captured on anti-human IgG, chemokine as analyte, 25 C, 1:1 Langmuir fit
Protocol: (§1) 433 RU (response unit) of a donkey anti-human IgG polyclonal antibody were immobilized by EDC/NHS chemistry on a C1 Biacore chip. […] The surface was regenerated after each cycle by injection of 10 mM glycine pH=2 at 30 μL/min, for 60s followed by 1 min. of stabilization time in HBS-EP buffer.
(§2) All proteins were diluted in the running buffer HBS-EP buffer (Biacore AB, Uppsala, Sweden). Injection was performed at 75 μl/min for 3 min. followed by 15 min. of dissociation time and the temperature was set at 25° C.

[8] = biological target: T4, NusA-huRANTES fusion protein (human, UniProt P13501 24-91, biotinylated in vivo at the AviTag); test: as above
T4 construct: GenBank M21121 is printed for the human RANTES gene; also called NusA-Rantes; not shown: NusA fusion partner of expression plasmid pET43 (Novagen); Factor X protease cleavage site at the C-terminus of NusA; AviTag biotinylation site at the C-terminus of the chemokine
T4 sequence: T1 sequence
Protocol: as §1, §2

[9] = biological target: T5, NusA-cynoRANTES fusion protein (cynomolgus monkey, UniProt Q8HYQ1 24-91 (rhesus entry), biotinylated in vivo at the AviTag); test: as above
T5 construct: also called cynomolgus RANTES; not shown: NusA fusion partner of expression plasmid pET43 (Novagen); Factor X protease cleavage site at the C-terminus of NusA; AviTag biotinylation site at the C-terminus of the chemokine
T5 sequence: T1 sequence with Y3H, S4A
Protocol: as §1, §2

moIP-10 = biological target: T6, moIP-10 (mouse, UniProt P17515); test: ELISA: chemokine fusion protein coated at 5 µg/ml, titration of 1E4, anti-human Fc-gamma-HRP and fluorescent substrate
T6 construct: coated protein of the ELISA panel; also called mouse IP-10
T6 sequence (chemokine, looked up): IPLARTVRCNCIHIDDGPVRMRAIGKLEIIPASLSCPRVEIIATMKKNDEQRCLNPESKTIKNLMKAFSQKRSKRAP

ratIP-10 = biological target: T7, ratIP-10 (rat, UniProt P48973); test: as above
T7 construct: coated protein of the ELISA panel
T7 sequence (chemokine, looked up): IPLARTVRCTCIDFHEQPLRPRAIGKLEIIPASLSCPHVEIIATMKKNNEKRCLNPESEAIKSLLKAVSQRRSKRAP

[10] = biological target: T4, NusA-huRANTES fusion protein; test: as above
[11] = biological target: T5, NusA-cynoRANTES fusion protein; test: as above
[12] = biological target: T8, mouse RANTES, expressed as fusion protein (ELISA panel) (mouse, UniProt P30882 24-91, Biotinylated in vivo at the AviTag, which is not in the letters); test: as above
T8 construct: not shown: NusA fusion partner with Factor X site, and the C-terminal AviTag
T8 sequence (P30882 24-91 limits assumed): as the sequence (P30882 24-91 limits assumed) above

[13] = biological target: T9, mouse RANTES, biotinylated in vivo (Example 14) (mouse, UniProt P30882 24-91, biotinylated in vivo at the AviTag); test: ELISA: biotinylated chemokine captured on Streptawell plate, 1E4 at 1 µg/ml, goat anti-human IgG Fc-gamma-HRP, TMB, OD450
T9 construct: Captured on streptavidin plates; not shown: AviTag biotinylation site at the C-terminus
T9 sequence (P30882 24-91): as the sequence (P30882 24-91 limits assumed) above
Protocol: Three mutants of mouse RANTES were generated by site directed mutagenesis in order to introduce the human residues at those positions: [S16A/L17R/A18P]; [S32G/L37P] and [Q59R/Y64S]. […] These variant of mouse RANTES were captured in streptavidin coated plates (Streptawell, Roche). […] The plate was washed and incubated with a goat anti-human IgG Fcγ-specific antibody coupled to horse radish peroxidase (Jackson). […] The plates were read at 450 nm.

Chemotaxis IC50 (nM), 0.2 nM huRANTES; L1.2-hCCR5 cells; IgG1 format [1]: 0.034 nM
Chemotaxis IC50 (nM), 1 nM huRANTES; L1.2-hCCR5 cells; IgG1 format [1]: 0.46 nM
Chemotaxis IC50 (nM), native huRANTES from THP1 cells; L1.2-hCCR5 cells; IgG1 format [2]: 0.028 nM
Calcium flux IC50 (nM); L1.2-hCCR1; 25 nM huRANTES [3]: 4.9 nM
Calcium flux IC50 (nM); L1.2-hCCR3; 25 nM huRANTES [3]: 4.46 nM
Calcium flux IC50 (nM); L1.2-hCCR5; 4 nM huRANTES [3]: 0.54 nM
Chemotaxis IC50 (nM); L1.2-hCCR1; 2 nM huRANTES [4]: 0.46 nM
Chemotaxis IC50 (nM); L1.2-hCCR3; 10 nM huRANTES [4]: 3.33 nM
Chemotaxis IC50 (nM); L1.2-hCCR5; 1 nM huRANTES [4]: 0.2 nM
Chemotaxis IC50 (nM); L1.2-hCCR5; 1 nM native huRANTES [5]: 0.09 nM
binding result [6]: no binding
Kd [7]: 0.455 nM
Kd [8]: 0.447 nM
Kd [9]: 2.24 nM
binding result (moIP-10): no binding (tested: about 3 µg/ml)
binding result (ratIP-10): no binding (tested: about 3 µg/ml)
EC50 (read off the curve) [10]: ~0.01 µg/mL
EC50 (read off the curve) [11]: ~0.01 µg/mL
binding result [12]: no binding (tested: about 3 µg/ml)
binding result [13]: no binding (tested: 1 µg/ml)
B1: 1E4 antibody, IgG1 format (antibody, V domains shown)
VH: QVQLVQSGAEVKKPGASVKVSCKVSGYTLTEFAMHWVRQAPGKGLEWMGGFVPEDGETIYAQKFQGRVTMTEDTSTDTAYMELSSLRSEDTAVYYCATDPLYEGSFSVWGQGTTVTVSS
VL: SYVLTQPPSVSVAPGQTARITCGGNNIESKSVHWYQQKPGQAPVLVVYDDSDRPSGIPERFSGSNSGNTATLTISRVEAGDEADYYCQVWDSNTDHWVFGGGTKLTVLG
notes: also called antibody 1E4 purified from CHO supernatant
